Experimental data as given in the DeepSol protein solubility set.

assay: soluble on expression in E. coli; label from the status in PepcDB or PDB records

| Sequence | soluble on expression in E. coli |
| --- | --- |
| MLLEAIFHEAKGSYAYPISETQLRVRLRAKKGDVVRCEVLYADRYASPEEELAHALAGKAGSDERFDYFEALLECSTKRVKYVFLLTGPQGEAVYFGETGFSAERSKAGVFQYAYIHRSEVFTTPEWAKEAVIYQIFPERFANGDPSNDPPGTEQWAKDARPRHDSFYGGDLKGVIDRLPYLEELGVTALYFTPIFASPSHHKYDTADYLAIDPQFGDLPTFRRLVDEAHRRGIKIILDAVFNHAGDQFFAFRDVLQKGEQSRYKDWFFIEDFPVSKTSRTNYETFAVQVPAMPKLRTENPEVKEYLFDVARFWMEQGIDGWRLDVANEVDHAFWREFRRLVKSLNPDALIVGAIWHDASGWLMGDQFDSVMNYLFRESVIRFFATGEIHAERFDAELTRARMLYPEQAAQGLWNLLDSHDTERFLTSCGGNEAKFRLAVLFQMTYLGTPLIYYGDEIGMAGATDPDCRRPMIWEEKEQNRGLFEFYKELIRLRHRLASLTRGNVRSWHADKQANLYAFVRTVQDQHVGVVLNNRGEKQTVLLQVPESGGKTWLDCLTGEEVHGKQGQLKLTLRPYQGMILWNGR | soluble |
| MAHHHHHHMAFTDAVAGKTSLPPPVAIIVGHNIDASAMPLTYERNRLVIDMLQHYACPVFSHKKSGDAMNTVSSDVFEWVLEPLPVVGVEDMTAFHDRAYLNYLSIREALSEVDERASTVKRSRAEGIQPPVSRRSSAQNQPPLRVLPDLVPIPTDEEYGLVNENMPFVGMWRTIQATVSGTLLAARLLAQPGRFAAIHWFGGRHHAKQSTAGGFCFANDVVLGVLELKKLLSSDKKGILVVDVDAHHGDGTQSAFLHDNSVLTLSMHAHGVGIFPGSGGIEEIGAGLGRGFTMNVPLPEGATDILAVTLMYRSIHFAFKKLGEGLAAIVIVCGSDALSGDPLGALNLTVGGMQSIIRLLLKEAARRSLKVLLLGGGGYVDTSCARLAGVVTKDVLSCAAAMRLGKTEYFGDSANLGDNLGVAVPEGCEYFTRYGPSFLMHGLPPARVSKLYRLPYGSPLFMRMQRAATKEALRRRRNQEQDEEEEEEEEEEEEEEEEEEEEEEEEEVEEEEGEGEEEA | not soluble |
| MPLDPQIKPILERIRALSIAASPQELRRQVEEQSRLLTAAVQEPIAETRDVHIPVSGGSIRARVYFPKKAAGLPAVLYYHGGGFVFGSIETHDHICRRLSRLSDSVVVSVDYRLAPEYKFPTAVEDAYAALKWVADRADELGVDPDRIAVAGDSAGGNLAAVVSILDRNSGEKLVKKQVLIYPVVNMTGVPTASLVEFGVAETTSLPIELMVWFGRQYLKRPEEAYDFKASPLLADLGGLPPALVVTAEYDPLRDEGELYAYKMKASGSRAVAVRFAGMVHGFVSFYPFVDAGREALDLAAASIRSGLQPS | soluble |
| MGFYQGPDNRKITGGLKGKHRDKRKYEIGNPPTFTTLSAEDIRIKDRTLGGNFKVRLKYTTTANVLDPATNTAKKVKILEILETPANKELARRGIIIRGAKIRTEAGLAVVTSRPGQDGVINAVLLKNESQRS | soluble |
| MGSDKIHHHHHHYKDLSQLKSEVDRLCRLCPWDWTFFNGNCYFFSKSQRDWHDSMTACKEMGAQLVIIKSHEEQSFLQQTSKKNSYTWMGLSDLNKEGEWYWLDGSPLSDSFEKYWKKGQPNNVGGQDCVEFRDNGWNDAKCEQRKFWICKKIATTCLS | not soluble |
| MNKVAIAVAAVVAGSSALLNSAQAEMYIGGKVGMTTLDDACYLNSPCDDEAFGAGLHIGYDFTDFIGLEYGVDFLGDYKANFKSGASTVDTIDGNLTALTLAPKFNWHLNDSWNLFAKIGGAYMMSEDEKDFVATGSLGAEYSIDRNWSVRAEYQRYQDMSDDVWDDMDANFFGIGVNYKFAAAPVVAAVVTEEVVEPDPEPVLMSKVH | not soluble |
| MNQLVCPLCCETLKEEGAHFYKHFKYKRYACGESTCDMGFYTQQELNAHCSKHGHKRSFQKTVNPYIDKMISVVVEDAYALATDDMETVLEKRWGRDPRSVSPTSPVKKTPTDSAKNKRSSVVTPTSPPVPKKAKSGTSTTSPFAFLNRRTNNSESSLCPNASSTSAQPASSSSAQAIVDSTTSEHNISIDKTKKPRKKRNESMTAAQNQEKAGKNANYDEMSAIDKLIGWFDPNVPERRDAAKVKCAVCNEEIVYDFILRKGHVTRSHMAADVAPEDYDDLLKTAMDRSYPDLPNSDLACQLCMTGAEVRKNMRREHIEKLHTTSLPPLTCPVGECEKGFRRQCDLSSHMKDTHKASMAVYKNATFQQVRRRRNAMINEMINKCFPWSRLEAIENKTVVGEKSDSVNRAPVDRSFDTDVRVRDVNKTRRAPQYNANRSSSSDSDSEHEEAASVATGEVSETGGTDDFPQDVIYICHQFNTEVAQKLSQIVRIKPEIIDVEDVLMNDVTMEINEIPVKEETEEEQPKEENNSTLPSIPIPSIFSPYEPIVPPPATSPDPMNPPIASLLPTRILSATNVLENKYNENVSSRRSTSRERSSNRNYDERWSRNDYSNPRNYSNRSFHQRNQRGHSSSNRFNSPFVSRNNYNNNSETTEGSSRRSEYNSSSSNHHSRSSYRGNRDDRGSRW | not soluble |
| VRLSRFDLAFDIFNRPEIVNLQHIKGGVTHKVFYGRGGELETKYWGSSGSNVQVRLYDKNKEIIAHKREEKLDLGVNPFWWRLEFQLRTKAIGEDMVQDIMNRLDNFGFYKLEHIRVDQRAFTIIFLSNPELLSLAFPNLKSDSIKKKKTRVRKLLREETNQFAEELKEVLIQNLPKLNTELQLLVGEFLTLEN | not soluble |
| MSLTQIFAHRGSKVDCPENTLAAFKKAIQVGCDGIEIDVHRTKDNQLVVIHDEAVDRTSNGSGLVRQLTLKQIRMLDAGSWFHPAYFCEKIPTLEEVLNFLEESGFQGTLNLEIKTNRYPYPKIEKQIAQTMQAKKRSFSHIYSSFNLFSLYVMRKHDPKAELAYLMKFHPFHFWLAQQLKFIKTVHSHSSFYENQVTKRKNKKPFRLWTVNNDDDMKKFFLSGIEGIITDKPEEAVKLRKSLQTKEGHHHHHH | not soluble |
| MPRFAANLSMMFTEVPFIERFAAARKAGFDAVEFLFPYNYSTLQIQKQLEQNHLTLALFNTAPGDINAGEWGLSALPGREHEAHADIDLALEYALALNCEQVHVMAGVVPAGEDAERYRAVFIDNIRYAADRFAPHGKRILVEALSPGVKPHYLFSSQYQALAIVEEVARDNVFIQLDTFHAQKVDGNLTHLIRDYAGKYAHVQIAGLPDRHEPDDGEINYPWLFRLFDEVGYQGWIGCEYKPRGLTEEGLGWFDAWRGS | soluble |
| EDKYTDKYDNINLDEILANKRLLVAYVNCVMERGKCSPEGKELKEHLQDAIENGCKKCTENQEKGAYRVIEHLIKNEIEIWRELTAKYDPTGNWRKKYEDRAKAAGIVIPEE | soluble |
| DGTVLPGPVPVTVAVRAPGDENDEDASGEASTPNAVRPRTSCRRDRFVAGIVRGTFHPDLYMCSQDCITFKGKRIGRSKFEKLGNSSMAKWHRSIRVIREDGELEPLGEWLTRHGLPVLKGKQRISRKRTIRI | not soluble |
| MFQVPDSEGGRAGSRAMKPPGGESSNLFGSPEEATPSSRPNRMASNIFGPTEEPQNIPKRTNPPGGKGSGIFDESTPVQTRQHLNPPGGKTSDIFGSPVTATSRLAHPNKPKDHVFLCEGEEPKSDLK | not soluble |
| MNKIHLCTLAVLTSLSFSSLAKDCDANLLPSWKDSDSKTAIVNFVEQSTDSSKATFIPVSDRIAVFDNDGTLWSEKPIYFQIAFALDQIKALAKTHPEWKTQEPFKSVIENDLEKVFAGGKESLLQIMKVTHSGMTVEEYQQSVEQWLAAAKDKRFGKAYNDLTFKPMREMLTYLQENNFKTYIVSGGGVDFMRVWAPEAYNIPEEQIIGSALKYEYSFNDGQPKVMKLGELLTLDDKEVKVENIQYIIGKKPVLAVGNSDGDQAMMQWATSQPNSMAMIVHHTDEAREWKYDRQSDVGRLDKALDEANERDNWQLIDMKNDWCAVY | not soluble |
| MSAGVQLPLDLPWRPALGREHFLVAACNASAVALVEAWPHWPAPAACIHGPTGAGKTHLAQVFATRAAAVVLDPAVILGTDPLTLFEGGRAAVIEDADRAGLPEATLFHLLNAARQRGGSLLLTALSPPARWGVHLADLRSRLAALPAEGLCEPDDELMAAVLLKLFSDRGLDVAPGAIGYLLPRMERSFAAARDLVVHADALALREGRAVTVPLLRQLLATPDRADRLEHHHHHH | not soluble |
| MADPGSVGHVFRRAFSWLPAQFASQSDAPVGAPRQFRSTEHLSIEAIAAFVDGELRMNAHLRAAHHLSLCAQCAAEVDDQSRARAALRDSHPIRIPSTLLGLLSEIPRCPPEGPSKGSSGGSSQGPPDGAAAGFGDRFADGDGGNRGRQSRVRR | soluble |
| MRKSMISFLEKKAKNEKITMVSAYDYHSARILDNSDIDIILVGDSLAMTVLGMQDTLSVTMDEMLIFTKAVSRGAKKSFVLADMPFMSYQSSDRDAILNASRFIKESHANGVKVEGGIEIASKIKLISQSGIPVVAHLGLTPQAVNMLGGYRVQGKDLQSAQKIIDDAKAVQDAGACMLVLECVPVKLAQKISSILEIPTIGIGSGKYCDGQVLVYHDLLGLNKDFKAKFVKHFDKIDPQVGVEKYRDEVKSGIFPSQEHSFDYLDDELLDKLY | not soluble |
| MKVRNVIIGFMVASLTGCSMGHRDPVEIKQTLDKSINENGGLLLADLPASVQADLMPELNTPHVEVEEPVKRFRVRANGVGAKAFFTSLVKGTEYSVVIHPQVSGRITMNLSDVTMDDVLSSVEDLYGYDIVKAGKVLQVYPATIRTETIPVDYLQLTRKGRSLTTITTGSITNSDNNSSNNNNSSSKSNNNSSSSSSSATGGTEIETTSESDFWKELETAISVMIGNGADRSVVVSPQASVVTITASPDELRKVKQFLGTSHKRLQRQVILEAKLLEVTLSDGYQQGINWSNLTASLGGTDVVFGQTSGLVQGALPGMDTIGTLLGGQTNITVSDGNFQAVLSFMDTQGDLNVLSSPRVTAANNQKAVIKVGRDEYYVTEVSSVTGSGDNSNASPEVTLTPFFSGISLDVTPQIDDKGNVMLHVHPSVIDVENEVKEIDLGDVGGVLKLPLAKSSIRESDSVIRAKSGDVVVIGGLMKSQTVDQVSKVPLLGDVPALGHLFRNVSQLTQKTELVILLKPTVVGVDTWQEELERSRDLLQEWFPDELEHHHHHH | soluble |
| MCGRFAYIASYDKLKYQFHLANAIEVPPRFNISPGADVLCLVETDGHKIQCVLLRWGFIPSWATDRKKLGNLINARAETVFEKPTFRQSIKSKRCLIPMSGFYEWRQEDGVKQPYFFQKKNHDLLAVAAIRDTWQQSDEVIHSCCLITTDANAFMQPVHNRMPVILGEEAQAIWLNNTQYDKAQLMALMKPYPYEDLEGYRVTTLVNKANFDHPLAMEPLSELEHHHHHH | soluble |
| MSLEATIRLGSSLPLTGHARYLGVETLRGALAYINHVNDSGGVHGRRIELDARDDGYDPPRCLANTQEQLISGEVFALTCYVGTPTTMRILPLVDEARIPLVGAFTGANGLRDPFSRYVFNVRASYYQETDAAVRHLVHDLGLTRIAVFYQYDAYGFDGLTGTELALRELGLAPVARGSYARGTDNIEDGLHRIIASDAEAVLMVGTSEPTARFIRMAEEAGFDAVYHALSFTGAEELARLLGHTDAKVLLSQVVPPPDAPEAPAILGCTTEYVNLLKRYYPDATPSAIGLEGYINARILVEGLRRAGPDLTREGFVRALESLRDYPLGGRTVVSFSPESRQGMGSVYFTRLVGGRFELMREAGAPPSAARPASNKGEGHHHHHH | soluble |
| MHTKPPIERIMYIELRTSLELFRSDLVDLEALANAAKEALEQLPYIPKEPCGKGEDDPLSGPESALRTGRLCGLVCCTATAAEGALSTCSKLIDWAYENEPEGVDDAVLVDDIDDDDDDDDDGSNGANGGGGANGSGNGSNGSGNGSPPDGGVEGAAPSLDADELAQARPSRGGIALDLAQCATTTDRPVA | not soluble |
